Laboratory results published in article PMC2580753.
Read-outs that look alike come from different tables or passages of the source. Blank lines part the entries; values can stand above or below the substance they belong to.

Legend:
Assay in all cases: SPR
[1] = target: Fcα (IgA1-Fc core fragment, CH2-CH3) (UniProt P01876); conditions: pH 7.4, 25 °C, 150 mM NaCl, TBS-P: 20 mM Tris
[2] = target: mIgA1κ (monomeric myeloma IgA1, kappa light chain) (UniProt P01876); conditions: pH 7.4, 25 °C, 150 mM NaCl, TBS-P: 20 mM Tris
Chain of mIgA1κ (monomeric myeloma IgA1, kappa light chain) (P01876 whole entry): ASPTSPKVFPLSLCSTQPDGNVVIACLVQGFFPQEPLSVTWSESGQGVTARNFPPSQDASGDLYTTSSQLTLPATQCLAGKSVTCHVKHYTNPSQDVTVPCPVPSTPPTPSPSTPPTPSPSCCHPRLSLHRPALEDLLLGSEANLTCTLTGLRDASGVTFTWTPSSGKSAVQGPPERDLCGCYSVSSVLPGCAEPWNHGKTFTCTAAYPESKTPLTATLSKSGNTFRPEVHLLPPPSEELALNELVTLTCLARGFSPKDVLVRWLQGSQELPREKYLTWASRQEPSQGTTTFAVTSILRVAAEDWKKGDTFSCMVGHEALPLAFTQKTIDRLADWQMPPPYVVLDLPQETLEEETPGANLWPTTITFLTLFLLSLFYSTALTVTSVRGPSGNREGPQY

[3] = target: mIgA1κ (monomeric myeloma IgA1, kappa light chain) (UniProt P01876); conditions: pH 7.4, 25 °C, 150 mM NaCl, TBS-P: 20 mM Tris; remark: listed apart in the source
[4] = target: Monomeric myeloma patient-derived IgA1λ (mIgA1λ) (human)
[5] = target: Monomeric myeloma patient-derived IgA1κ (mIgA1κ) (human)
[6] = target: Monomeric IgA1 (Mce), a naturally undergalactosylated myeloma IgA1 protein (human)
[7] = target: Monomeric myeloma patient-derived IgA1κ (mIgA1κ) (human); remark: listed apart in the source
[8] = target: Deglycosylated mIgA1κ (N-glycans removed enzymatically) (human)
[9] = target: Monomeric myeloma patient-derived IgA1κ (mIgA1κ) (human); remark: listed apart in the source
[10] = target: Deglycosylated mIgA1κ (N-glycans removed enzymatically) (human); remark: listed apart in the source

Chain of Fcα (IgA1-Fc core fragment, CH2-CH3) (P01876 whole entry, the tested form may be a part): as the sequence (P01876 whole entry) above
Chain of Soluble recombinant FcαRI ectodomain (P24071 22-227): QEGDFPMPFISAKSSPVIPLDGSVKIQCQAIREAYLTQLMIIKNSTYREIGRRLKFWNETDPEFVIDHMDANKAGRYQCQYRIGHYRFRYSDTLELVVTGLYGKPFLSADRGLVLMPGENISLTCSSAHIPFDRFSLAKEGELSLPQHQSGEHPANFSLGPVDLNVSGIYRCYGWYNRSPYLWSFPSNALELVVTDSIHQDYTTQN

k1off [1]: 0.0278 s⁻¹
k1on [1]: 461000 M/s
k2off [1]: 0.054 s⁻¹
k2on [1]: 447000 M/s
k1off [2]: 0.0266 s⁻¹
k1on [2]: 355000 M/s
k2off [2]: 0.074 s⁻¹
k2on [2]: 304000 M/s
k1off [3]: 0.0267 s⁻¹
k1on [3]: 317000 M/s
k2off [3]: 0.096 s⁻¹
k2on [3]: 315000 M/s
Substance: FcαRI (CD89) soluble ectodomain

KD1 (two-site equilibrium model) [4]: 47.6 nM
KD2 (second binding event) [4]: 195 nM
KD2 (two-site equilibrium model) [4]: 371 nM
k1off (first binding event) [4]: 0.0254 s⁻¹
k1on (first binding event) [4]: 312000 M/s
k2off (second binding event) [4]: 0.102 s⁻¹
k2on (second binding event) [4]: 525000 M/s
KD1 (first binding event) [5]: 74.9 nM
KD1 (two-site equilibrium model) [5]: 40.2 nM
KD1 at pH 5.5 (first binding event) [5]: 837 nM
KD2 (second binding event) [5]: 244 nM
KD2 (two-site equilibrium model) [5]: 452 nM
KD2 at pH 5.5 (second binding event) [5]: 2.53 μM
k1off (first binding event) [5]: 0.0266 s⁻¹
k1on (first binding event) [5]: 355000 M/s
k2on (second binding event) [5]: 304000 M/s
KD1 (first binding event) [6]: 72.3 nM
KD1 (two-site equilibrium model) [6]: 40.8 nM
KD2 (second binding event) [6]: 222 nM
KD2 (two-site equilibrium model) [6]: 403 nM
k1off (first binding event) [7]: 0.0267 s⁻¹
k1on (first binding event) [7]: 317000 M/s
k2on (second binding event) [7]: 315000 M/s
KD1 (first binding event) [8]: 78.4 nM
KD2 (second binding event) [8]: 320 nM
k1off (first binding event) [8]: 0.0258 s⁻¹
k1on (first binding event) [8]: 329000 M/s
k2on (second binding event) [8]: 187000 M/s
KD1 (two-site equilibrium model) [9]: 45 nM
KD2 (two-site equilibrium model) [9]: 571 nM
KD1 (two-site equilibrium model) [10]: 42.6 nM
KD2 (two-site equilibrium model) [10]: 582 nM
Substance: Soluble recombinant FcαRI ectodomain (from UniProt P24071 22-227) (receptor)
